Data on four molecules can be found in patent publication US20060084157A1.

Data set [1] concerns the target Purified Fe-hydrogenase HydA of Scenedesmus obliquus (native enzyme) (Scenedesmus obliquus). The experiment in a line: cell-based or functional assay.
The target in data set [2] is ferredoxin (source not stated, Table I).

Purified Fe-hydrogenase HydA of Scenedesmus obliquus (native enzyme) (Scenedesmus obliquus), sequence (chain, as listed by the source): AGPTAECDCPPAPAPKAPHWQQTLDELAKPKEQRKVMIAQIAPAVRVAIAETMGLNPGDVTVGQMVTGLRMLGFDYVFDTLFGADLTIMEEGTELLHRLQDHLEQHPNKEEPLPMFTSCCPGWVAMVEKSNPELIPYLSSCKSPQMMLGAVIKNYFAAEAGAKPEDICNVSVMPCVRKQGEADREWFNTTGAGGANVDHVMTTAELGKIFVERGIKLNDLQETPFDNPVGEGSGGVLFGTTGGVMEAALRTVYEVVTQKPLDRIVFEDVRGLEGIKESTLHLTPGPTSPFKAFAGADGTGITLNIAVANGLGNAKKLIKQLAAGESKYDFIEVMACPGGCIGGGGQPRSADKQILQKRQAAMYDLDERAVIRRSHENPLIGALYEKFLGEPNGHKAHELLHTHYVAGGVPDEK

For the molecule “Ferredoxin (PetF) of Chlamydomonas reinhardtii (from UniProt P07839 33-126)”, the H2-evolving activity (in vitro, dithionite as reducing reagent) in data set [1] was determined as 390 U/mg protein.
For “Spinach ferredoxin (PetF) (from UniProt P00221 51-147)”, the H2-evolving activity (in vitro, dithionite as reducing reagent) in data set [1] is 350 U/mg protein.
In data set [1], “Ferredoxin (PetF) of Scenedesmus obliquus” yielded an H2-evolving activity (in vitro, dithionite as reducing reagent) of 420 U/mg protein.

B1: Fe-hydrogenase HydA of Chlamydomonas reinhardtii (native mature enzyme) (protein)
chain: AAPAAEAPLSHVQQALAELAKPKDDPTRKHVCVQVAPAVRVAIAETLGLAPGATTPKQLAEGLRRLGFDEVFDTLFGADLTIMEEGSELLHRLTEHLEAHPHSDEPLPMFTSCCPGWIAMLEKSYPDLIPYVSSCKSPQMMLAAMVKSYLAEKKGIAPKDMVMVSIMPCTRKQSEADRDWFCVDADPTLRQLDHVITTVELGNIFKERGINLAELPEGEWDNPMGVGSGAGVLFGTTGGVMEAALRTAYELFTGTPLPRLSLSEVRGMDGIKETNITMVPAPGSKFEELLKHRAAARAEAAAHGTPGPLAWDGGAGFTSEDGRGGITLRVAVANGLGNAKKLITKMQAGEAKYDFVEIMACPAGCVGGGGQPRSTDKAITQKRQAALYNLDEKSTLRRSHENPSIRELYDTYLGEPLGHKAHELLHTHYVAGGVEEKDEKK
For the molecule B1, in data set [2], the “KM value (ferredoxin)” value turned out to be 35 µM.
